Measured values reported in PMC6141588, “Electron microscopy of Chaetomium pom152 shows the assembly of ten-bead string” (Cell Discovery, 2018).

Target: the molecule itself
Test: cryo-EM micrographs of single particles; purified Ctpom152^FL, much of the detergent removed before rapid freezing; longer strings in up to an estimated 10% of over 2000 images

B1: full-length pom152 of Chaetomium thermophilum (Ctpom152^FL) (natural protein, UniProt G0SB44 1-1270, looked up)
chain: MSDAPAVGAFPQTPVAARRGPARPSDSTTSTTIKRTSPLPLAPQAGRQATNISPVIPLHILDAPTQRFYAFAFYLALTAWKLYDWTQVLEEDTESFLLFLKWIAIDCVFLFGLPELRIPWLELSQPFVMVAFAIHAMFDWILMFNIGFPWQSWVIGLLKVFYDREIAISEHNVKLSSILQNSSLIMGRQIINILPEGSAILNPELQPFCLGGDRKTANIPIFFNSTIPVEVELIRTDFETGQQESIKLSKSQLRDIERRAKRESQDGDTVQSIVQFDFPVKKTGAYRLGRVLDEYKLEVQRRNPLTFVVSCPKAWVGPALSAHRCVGDLSDLSMMVEGTPPLKIKYSRMINGKDHSFHFQSLQPEGFVSPLSGLRSNNWGYDEDDISWARAQKVPVGLNESMHSSGDWQYSIDEVQDGFGNIIKYDSLADDPDGKPKPKHLTQSFVVKKRPVIRLEGCDLRHPLKVAKGKSKNLPVSYGLSGGSREDSTYQIAWQFSPIDTLTESGDHGDVVTIGTYTAKNNRDRPTISAPGLYTLKSVSASQCEGEIQEPSSCLLLNPLEPRLSLRHEEIPDTCAGNSIGLRVDLDLIGTPPFIVRYDVISNGERRSERVSIPGLRYQLDLVPRIAGHHKYIFTHVGDSIYDGQKLSGPEYVLEQDVKPAAAALIQHSTGKMSSCLGDQVTVDILLLGDPPFTLEWELIHDGKRKQFKVPNIQENSYQIKTAPLTTGGEYTLGLTSVQDKRGCRNFLQEELKISVRRQSPRAAFGQVDGKRKILAVEGSSVKLPLRLTGEGPWKVYYANLHDGSPDKPKVQEKIIKSDNGFLEVRGRGAFAITDVWDSQCHGVVDPKASRFDVDWFPRPELSVALTHGVSKTETGFQLQDVCEGDVSGFEVALKGTPPFTVEYEVRHHPLQGSSSLSKKKIEGVVGKEAIQADTSKAGTYTYKFTALEDDLYSSNRGFQPIIVKQNVNRKPTASFVKPGQTFKYCKSEQDNEDGIPITLTGVPPFFLEVEIKHQSAAVPEIYRTPAIDSHSYELKIPRHHLRLGTQHIRIRDIRDGSGCHSTSGILSGPSVQVQLFEAPTIYPLETRTDYCVGERISYTLSGQAPFEVWYTFNGVELKAKSPNTNFRRIAESPGEFTITSVSDKASECRAPVSITKTIHPLPAVRISKGKSVRVDIHEGGEVDILFEFFGTPPFEFTYTRSTNARKGQKSQVLETRHDISHEHSKVIKASQEGTYEVVAIKDKYCSFSTQAVVGLEGGKKDKTKKLKVY
notes: also called FL Ctpom152; full-length Ctpom152; source: insect cells, purified with detergent extract; much of the detergent removed before cryo-EM
  binding result: binds
